This is an account of results in patent publication US20120058118A1 (Boehringer Ingelheim, published 2012).

Ends that are not written are not given here. * marks the point of attachment. Biotin = O=C1N[C@H]2[C@H](CS[C@H]2CCCCC(=O)*)N1

One assay addresses T1, A-beta(12-28) peptide (human).
T1 construct: Bachem peptide captured on streptavidin chip; also called monomeric A-beta(12-28); central region
T1 peptide: Biotin-VHHQKLVFFAEDVGSNK
Nature of the assay: SPR on captured A-beta(12-28).

Assay [1] concerns the target T2, human A-beta(1-40) peptide, monomeric (BAM) (human, biotin at the C-terminus in capture ELISA, SPR and TR-FRET; not biotinylated where coated directly (Example 7)). Nature of the assay: cell-based or functional assay.
The target in assay [2] is T2, human A-beta(1-40) peptide, monomeric …. The assay is described as follows: TR-FRET competition, labelled ABII60A10; extrapolated curve.
The target of assay [3] is T3, aggregated A-beta(1-40) peptide (BAA) (human).
T3 construct: also called A-beta peptide aggregates
The assay is described as follows: BAA ELISA. For orientation: In an ELISA, binding on a coated surface is turned into a signal by an enzyme label.

Assay [4] concerns the target T2, human A-beta(1-40) peptide, monomeric …. Nature of the assay: BAM ELISA.
For assay [5], the target named is T3, aggregated A-beta(1-40) peptide (BAA). Nature of the assay: BAA ELISA. This is another data set of the same source.
Assay [6] deals with T2, human A-beta(1-40) peptide, monomeric …. Nature of the assay: BAM ELISA. The source holds these as a separate data set.
The target is the same in assay [7]. Nature of the assay: TR-FRET competition, labelled ABII42D4. In general terms: Time-resolved FRET reads energy transfer from a long-lived donor to a nearby acceptor.
Assay [8] has the same target. The assay is described as follows: ABII050 TR-FRET competition assay.

Experimental for A-beta(12-28) peptide: After capturing, surfaces are blocked by injecting an excess (200 μg/ml) of d-biotin for 180 s at 5 μl/min. A reference surface is washed and blocked with d-biotin. HBS-EP+buffer is used as the running buffer and experiments are performed at 25° C. For off-rate screening, periplasmic extracts of VHHs are injected at a 10-fold dilution for 2 min at 45 μl/min and are allowed to dissociate for 10 min. […] Between different VHH samples, the surfaces are regenerated with regeneration buffer (50 mM NaOH) for 25 s at 45 μl/min followed by 10 s 6M GuHCl at 45 μl/min if regeneration is incomplete. […] Data are double referenced by subtraction of the curves on the reference channel and of a blank running buffer injection. Sensorgrams are evaluated by fitting a 1:1 dissociation model using the Biacore T100 Evaluation software v1.1.1.

B1: ABII35G2 (VHH)
VHH: EVQLVESGGGLVQAGGSLRLSCVASGRTFSNYGMGWFRQAPGKDREFVAAISRSGGTTYYEDDVKGRFTISRDNAKNSVYLQMNSLKPEDTAVYYCAARPSYVAVNIAASYNNWGQGTQVTVSS
B1: the binding result in the assay with A-beta(12-28) peptide is recorded as “binds”. Moreover, in [1], the “inhibition of peptide aggregation (ThT fluorescence), 28 µM VHH” value (“inhibition of peptide aggregation” below) is 76%. In assay [2], the IC50 (usually the concentration needed to halve the response being measured) is 645 nM. Moreover, the EC50 – broadly, the concentration needed to bring the measured effect to its halfway point – in [3] turned out to be 5.4 nM; in [4], 10.7 nM.

B2: ABII35D2 (VHH)
VHH: EVQLVESGGGLVQAGGSLRLSCVASGLTFSSYNMGWFRQAPGKEREFVAAISRSGGSTYYTDSVKGRFTISRDSSKNTVYLQMNSLKPEDTADYYCAAALFGSAINLLSEYRYWGQGTQVTVSS
As for B2, the binding result with A-beta(12-28) peptide was “binds”. For the same molecule, the “inhibition of peptide aggregation” value in assay [1] worked out at 73%. Moreover, the half-inhibitory concentration (IC50) in assay [2] is 773 nM. Also, the half-maximal effective concentration (EC50) is 12.8 nM in [3] and 37.5 nM in assay [4].

B3: reference VHH 1B (VHH)
VHH: QVQLQESGGGLVQPGGSLRLSCAASEFTLDYYSIAWFRQAPGKEREGVSCISSYDGSTSYADSVKGRFTISRDNAKNTVYLQMNSLKPEDTAIYYCAAGIRDWATLREYEYDDWGQGTQVTVSS
notes: from WO2007/35092
With B3, the binding result in [5] and in [6] was “no binding” in each case.

B4: ABII42F5 (VHH)
VHH: EVQLVESGGGLVQAGDSLRLSCTASGRTFTDYNIGWFCQAPGKEREFVAAISGSGGSTYYADSAKGRFTISRDNAKNTVYLQMNSLKPEDTAVYACAAAQRRLAVNVDTSYNVWGQGTQVTVSS
For B4, the binding result in the assay with A-beta(12-28) peptide is listed as “binds”. For the same molecule, the “inhibition of peptide aggregation” value in assay [1] amounted to 79%. The IC50 in [2] was 228 nM. The EC50 in assay [3] came out at 20 nM; in [4], 41.1 nM.

B5: reference VHH 31-1 (VHH)
VHH: EVQLQASGGGSVQPGGSLRLSCAASGFIFGWSTMSWVRQAPGKGLEWVSTISGGGSATTYTDSVKGRFTISRDRAKNTLYLQMNSLKPEDTAIYYCNADVSTGFRYQRKDYWGRGTQVTVSS
notes: from WO2004/44204; also called V31-1
Consider B5, for which the binding result in [5] and in assay [6] was “no binding” throughout.

B6: ABII61F6 (VHH)
VHH: EVQLVESGGGLVQTGGSLRLSCAASGSTVNINAMGWYRQAPGKQRELVAIINKRGVTNYADSTEGRFTISRDNSKRTLYLQMNSLKPEDTAVYYCNAVVGRYGRTYGYWGQGTQVTVSS
Regarding B6, the binding result in the assay with A-beta(12-28) peptide is reported as “binds”. For the same molecule, the IC50 in assay [2] was 967 nM. For the same molecule, the 50% effective concentration (EC50) in assay [3] worked out at 14.5 nM; in assay [4], 469 nM.

B7: ABII111B5_E109W (VHH)
VHH: EVQLVESGGGLVLAGGSLRLSCVHSGPTFRTDTMGWFRQAPGKEREFVAAVTWNSGRINYADSVKGRFTVSRDNTRNAAYLQMSGLKDEDTAVYYCTAHRFVVGGNMVWDWRYWGQGTQVTVSS
notes: targeted mutant
In turn, B7 displayed an IC50 in assay [7] of 4.7 nM.

B8: ABII111B5_F101W (VHH)
VHH: EVQLVESGGGLVLAGGSLRLSCVHSGPTFRTDTMGWFRQAPGKEREFVAAVTWNSGRINYADSVKGRFTVSRDNTRNAAYLQMSGLKDEDTAVYYCTAHRWVVGGNMVEDWRYWGQGTQVTVSS
notes: targeted mutant
B8: the IC50 in [7] worked out at 7.3 nM.

B9: ABII111B5_R30K (VHH)
VHH: EVQLVESGGGLVLAGGSLRLSCVHSGPTFKTDTMGWFRQAPGKEREFVAAVTWNSGRINYADSVKGRFTVSRDNTRNAAYLQMSGLKDEDTAVYYCTAHRFVVGGNMVEDWRYWGQGTQVTVSS
notes: targeted mutant
In assay [7], B9 displayed an IC50 of 5.3 nM.

B10: ABIIPMP111F2 (VHH)
VHH: EVQLVESGGGLVLAGGSLRLSCVHSGPTFSTDTMGWFRQAPGKEREFVAAVTWNSGRTNYADSVKGRFTVSRDNTRNAAYLQMSGLKDEDTAVYYCTANRHSVGRLSVGDWRYWGQGSQVTVSS
notes: c-myc and (His)6 tags
In [7], B10 showed an IC50 of 3.4 nM.

B11: ABII111E5cl1 (VHH)
VHH: EVQLVESGGGLVLAGGSLRLSCVHSGPTFLTDTMGWFRQAPGKEREFVAAVTWNSGRINYADSVKGRFTVSRDNTRNAAYLQMSGLKDEDTAVYYCTAHRFVVGGREVQDWRYWGQGTQVTVSS
notes: c-myc and (His)6 tags
B11 showed an IC50 in [7] of 8.8 nM.

B12: ABIIPMP111E4 (VHH)
VHH: EVQLVESGGGLVLAGGSLRLSCVHSGPTFSTDTMGWFRQAPGKEREFVAAVTWNSGRTNYADSVKGRFTVSRDNTRNAAYLQMSGLKDEDTAVYYCTAARLTVGSLSVGDWRYWGQGTQVTVSS
notes: c-myc and (His)6 tags
In turn, B12 yielded a half-maximal inhibitory concentration (IC50) in [7] of 6.1 nM.

B13: ABIIPMP111B4 (VHH)
VHH: EVQLVESGGGLVLAGGSLRLSCVHSGPTFWTDTMGWFRQAPGKEREFVAAVTWSSGRANYADSVKGRFTVSRDNTRNAAYLQMSGLKDEDTAVYYCTAHRGVVGGWVVVDWRYWGQGTQVTVSS
notes: c-myc and (His)6 tags
As for B13, the IC50 in [7] was determined as 5.1 nM.

B14: ABII111B5_N106T (VHH)
VHH: EVQLVESGGGLVLAGGSLRLSCVHSGPTFRTDTMGWFRQAPGKEREFVAAVTWNSGRINYADSVKGRFTVSRDNTRNAAYLQMSGLKDEDTAVYYCTAHRFVVGGTMVEDWRYWGQGTQVTVSS
notes: targeted mutant
On to B14, for which, in [7], the 50% inhibitory concentration (IC50) was determined as 9.2 nM.

B15: ABII111B5_N106V (VHH)
VHH: EVQLVESGGGLVLAGGSLRLSCVHSGPTFRTDTMGWFRQAPGKEREFVAAVTWNSGRINYADSVKGRFTVSRDNTRNAAYLQMSGLKDEDTAVYYCTAHRFVVGGVMVEDWRYWGQGTQVTVSS
notes: targeted mutant
Consider B15, for which the half-inhibitory concentration (IC50) in [7] came out at 10 nM.

B16: ABIIPMP111B9 (VHH)
VHH: EVQLVESGGGLVLAGGSLRLSCVHSGPTFGTDTMGWFRQAPGKEREFVAAVTWNSGRANYADSVKGRFTVSRDNTRNAAYLQMSGLKDEDTAVYYCTAHRFVVGGGCVKDWRYWGQGTQVTVSS
notes: c-myc and (His)6 tags
Molecule B16 had a half-maximal inhibitory concentration (IC50) in assay [7] of 19 nM.

B17: ABIIPMP111C4 (VHH)
VHH: EVQLVESGGGLVLAGGSLRLSCVHSGPTFLTDTMGWFRQAPGKEREFVAAVTWNSGRANYADSVKGRFTVSRDNTRNAAYLQMSGLKDEDTAVYYCTAHRSVVGGVGVWDWRYWSQGTQVTVSS
notes: c-myc and (His)6 tags
As to B17, the IC50 in [7] is 8.6 nM.

B18: ABII111B5_R30W (VHH)
VHH: EVQLVESGGGLVLAGGSLRLSCVHSGPTFWTDTMGWFRQAPGKEREFVAAVTWNSGRINYADSVKGRFTVSRDNTRNAAYLQMSGLKDEDTAVYYCTAHRFVVGGNMVEDWRYWGQGTQVTVSS
notes: targeted mutant
As for B18, in [7], the half-inhibitory concentration (IC50) is 5 nM.

B19: ABIIPMP111C6 (VHH)
VHH: EVQLVESGGGLVLAGGSLRLSCVHSGPTFWTDTMGWFRQAPGKEREFVAAVTWNSGRLNYADSVKGRFTVSRDNTRNAAYLQMSGLKDEDTAVYYCTAHRQVVGGVQVLDWRYWGQGTQVTVSS
notes: c-myc and (His)6 tags
With B19, the IC50 in [7] turned out to be 6 nM.

B20: ABII35C7 (VHH)
VHH: EVQLVESGGGLVQPGGSLRLSCAASGRTFSIYNMGWFRQAPGKEREFVAAISRSGSSTYYGDSVKGRFTISRDNAKKTVYLQMNSLKPEDTAVYHCAAARFGTPINTRGSYDYWGQGTQVTVSS
Consider B20, for which, in the assay with A-beta(12-28) peptide, the binding result was “binds”. In addition, the “inhibition of peptide aggregation” value in assay [1] came to 82%. Further, the IC50 in assay [2] is 206 nM. In addition, the figures for the EC50 in assay [3] and in assay [4] were 1.3 nM and 1.9 nM, respectively.

B21: ABII315-PEG40 (designed binder)
chain: EVQLLESGGGLVQPGGSLRLSCAASGRTFNNYNMGWFRQAPGKGREFVAAVSRSGVSTYYADSVKGRFTISRDNSKNTVYLQMNSLRPEDTAVYYCAAAYRGTAINVRRSYSSWGQGTLVTVSSGGGGCGGGSEVQLLESGGGLVQPGGSLRLSCVHSGPTFRTDTMGWFRQAPGKGREFVAAVTWNSGRINYADSVKGRFTISRDNSKNTAYLQMNSLRPEDTAVYYCAAHRFVVGGNRVEDWRYWGQGTLVTVSS
modifications: PEG40 on the Cys at position 5 of the 9GS linker
notes: 059-9GSC-035; purified as His6-tagged construct before PEGylation
Consider B21, for which the IC50 in assay [8] was found to be 0.31 nM.

B22: reference VHH 3A (VHH)
VHH: AVQLVESGGGLVRDGDSLRLSCAASGRTFSSYVMGWFRQAPGKEREFVAAIGWSGGSTAYADSVKGRFTISRDNARNTVYLQMNSLKPEDTAVYYCASAPTRWVPRDSRFYDRWGQGTRVTVSS
notes: from WO2007/35092
Turning to B22, the binding result in assay [5] and in assay [6] was “no binding” each time.

B23: ABII1E11 (VHH)
VHH: EVQLVESGGGLVQPGGSLRLSCAASGRTFSDYNMGWFHQAPGKEREIVAAISRSGRSTYYTVSVEGRFTISRDNAKNTVDLEMNSLKPEDTGIYYCAANSAGRAINLPLYKYWGQGTQVTVSS
Regarding B23, the binding result with A-beta(12-28) peptide is listed as “binds”. In addition, the half-maximal inhibitory concentration (IC50) in assay [2] is 844 nM. The EC50 in assay [3] worked out at 19.2 nM; in assay [4], 27.3 nM.

B24: reference VHH 11G (VHH)
VHH: QVQLQESGGGLVQPGGSLRLSCAASGSIFSINTMAWYRQAPGKERDLVAAIISSGSTNYADSVKGRFTISRDNTKNTVYLQMNSLKLEDTAVYYCNAAIRRSVIDAWGAYWGQGTQVTVSS
notes: from WO2007/35092
For B24, the binding result in assay [5] and in assay [6] was “no binding” throughout.
